# Measured values as given in US20210340238A1, “TGFß1 INHIBITORS AND USE THEREOF” (Scholar Rock, Inc., priority 2018, published 2021).
# Where a chain is given by its changes, count along the chain named. Several values for one entry are separate records, joined by “and”; a condition that tells them apart may be missing. Identical values can stand only once.
# B1: Ab19: monoclonal antibody binding proTGFβ1 complexes; VH SEQ ID NO: 234, VL SEQ ID NO: 15 (antibody, V domains shown)
# VH: QVQLVESGGGVVQPGRSLRLSCAASGFTFSSFAMTWVRQAPGKGLEWVSAISGSGAATYFADSVKGRFTISRDNSKNTLYLQMNSLRAEDTAVYYCARVSSGHWDFDEWGQGTLVTVSS
# VL: DIQLTQSPSSLSASVGDRVTITCRASQSISSYLNWYQQKPGKAPKLLIYAASNLQSGVPSRFSGSGSGTDFTLTISSLQPEDFATYYCQQTYTVPLTFGGGTKVEIK
# B2: Ab11: monoclonal antibody binding proTGFβ1 complexes; VH SEQ ID NO: 216, VL SEQ ID NO: 15 (antibody, V domains shown)
# VH: EVQLLESGGGLVQPGGSLRLSCAASGFTFRNYAMSWVRQAPGKGLEWVSSISGSGGATYYADSVKGRFTISRDNSKNTLYLQMNSLRAEDTAVYYCARVSSGHWDFDYWGQGTLVTVSS
# VL: B1 VL
# B3: Ab12: monoclonal antibody binding proTGFβ1 complexes; VH SEQ ID NO: 212, VL SEQ ID NO: 15 (antibody, V domains shown)
# VH: B1 VH with S31D, F32Y, T35V, A56F, A57T, F60Y, E108Y
# VL: B1 VL
# B4: Ab13: monoclonal antibody binding proTGFβ1 complexes; VH SEQ ID NO: 222, VL SEQ ID NO: 223 (antibody, V domains shown)
# VH: B2 VH with R30A, N31D, S35T, S50A, G53S, S54F, G55A, G56S, T58I
# VL: B1 VL with L4M, N53S, T91V, T93D, V94P
# B5: Ab14: monoclonal antibody binding proTGFβ1 complexes; VH SEQ ID NO: 224, VL SEQ ID NO: 223 (antibody, V domains shown)
# VH: B2 VH with R30S, N31A, S35T, S50A, S54T, A57S
# VL: B1 VL with L4M, N53S, T91V, T93D, V94P
# B6: Ab15: monoclonal antibody binding proTGFβ1 complexes; VH SEQ ID NO: 226, VL SEQ ID NO: 15 (antibody, V domains shown)
# VH: B1 VH with Q1E, S31D, F32Y, T35V, A56F, A57T, F60Y, E108Y
# VL: B1 VL
# B7: Ab16: monoclonal antibody binding proTGFβ1 complexes; VH SEQ ID NO: 228, VL SEQ ID NO: 15 (antibody, V domains shown)
# VH: B2 VH with R30S, S50A, G56F, A57T
# VL: B1 VL
# B8: Ab17: monoclonal antibody binding proTGFβ1 complexes; VH SEQ ID NO: 230, VL SEQ ID NO: 15 (antibody, V domains shown)
# VH: B1 VH with Q1E, V5L, R16G, E108Y
# VL: B1 VL
# B9: Ab18: monoclonal antibody binding proTGFβ1 complexes; VH SEQ ID NO: 232, VL SEQ ID NO: 15 (antibody, V domains shown)
# VH: B1 VH with S31D, F32Y, T35V, R98T, E108Y
# VL: B1 VL
# B10: Ab20: monoclonal antibody binding proTGFβ1 complexes; VH SEQ ID NO: 236, VL SEQ ID NO: 15 (antibody, V domains shown)
# VH: B2 VH with R30S, N31A, S35T, S50A, A57V, F106Y
# VL: B1 VL
# Molecular target: Matrix-associated proTGFβ1
# Assay: Octet binding, ECM average of hLTBP1 and hLTBP3 complexes
# Set-up: species or system human
# Conditions: average KD of (B) and (C), read-out: (D) ECM AVRG
# Excerpt: (§1) Column (A) of the table provides monoclonal antibodies with discrete amino acid sequences. […] Columns (B), (C), (E) and (F) provide affinities of each of the listed antibodies, measured in KD, towards the antigen complex as indicated, respectively. […] Average KD values calculated from (B) and (C) are shown in the corresponding column (D), which collectively represents affinities of the antibodies to ECM- or matrix-associated proTGFβ1 complexes. Similarly, Average KD values calculated from (E) and (F) are shown in the corresponding column (G), which collectively represents affinities of the antibodies to cell-surface or cell-associated proTGF complexes. Finally, relative ratios between the average KD values from columns (D) and (G) are expressed as fold bias” in column (H). Thus, the greater the numerical of column (H) is, the greater bias exists for the particular antibody, when comparing binding preferences of the antibody for matrix-associated complexes to cell-surface complexes. This is one way of quantitatively representing and comparing inherent bias of antibodies to their target complexes. Such analyses may be useful in guiding the selection process for a candidate antibody for particular therapeutic use.
row,Molecule,Kd
1,B1,0.172 nM
2,B2,0.161 nM
3,B3,0.17 nM
4,B4,0.263 nM
5,B5,0.341 nM
6,B6,0.159 nM
7,B7,0.157 nM
8,B8,0.191 nM
9,B9,0.284 nM
10,B10,0.162 nM

# Test system: Cell-associated proTGFβ1
# Assay: Octet binding, cell average of hGARP and hLRRC33 complexes
# Set-up: species or system human
# Conditions: average KD of (E) and (F), read-out: (G) Cell AVRG
# Excerpt: as §1
row,Molecule,Kd
1,B1,5.95 nM
2,B2,0.699 nM
3,B3,3.89 nM
4,B4,5.7 nM
5,B5,5.92 nM
6,B6,3.86 nM
7,B7,2.4 nM
8,B8,4.64 nM
9,B9,6.26 nM
10,B10,0.715 nM

# Test system: Matrix-associated proTGFβ1 vs Cell-associated proTGFβ1
# Assay: Octet binding, matrix vs cell bias (G/D)
# Set-up: species or system human
# Conditions: ratio of cell average KD to ECM average KD
# Excerpt: as §1
row,Molecule,(H) G/D (fold bias)
1,B1,34.47 fold
2,B3,22.897 fold
3,B4,21.71 fold
4,B5,17.36 fold
5,B6,24.25 fold
6,B7,15.307 fold
7,B8,24.288 fold
8,B9,22.00 fold

# Molecular target: Matrix-associated proTGFβ1
# Assay: MSD-SET binding, ECM average of hLTBP1 and hLTBP3 complexes
# Set-up: species or system human
# Conditions: average KD of (B) and (C), read-out: (D) ECM AVRG
# Excerpt: (§2) Column (A) of the table provides monoclonal antibodies with discrete amino acid sequences. […] Columns (B), (C), (E) and (F) provide affinities of each of the listed antibodies, measured in KD, towards the antigen complex as indicated, respectively. […] Similarly, Average KD values calculated from (E) and (F) are shown in the corresponding column (G), which collectively represents affinities of the antibodies to cell-surface or cell-associated proTGF complexes. Finally, relative ratios between the average KD values from columns (D) and (G) are expressed as fold bias” in column (H). Thus, the greater the numerical of column (H) is, the greater bias exists for the particular antibody, when comparing binding preferences of the antibody for matrix-associated complexes to cell-surface complexes. This is one way of quantitatively representing and comparing inherent bias of antibodies to their target complexes. Such analyses may be useful in guiding the selection process for a candidate antibody for particular therapeutic use. Select antibodies of the present disclosure, as measured by MSD-SET, show context-bias (i.e., greater than five-fold bias) or unbias (i.e., less than 5-fold bias) toward matrix-associated complexes over cell-associated complexes. […] Without being bound by a particular theory, the differences in the kinetics of the assays and/or differences in the nature of recombinant proteins may account for the noticeable differences seen in Ab19 binding to hGARP complexes observed in the above Octet assay (see Table 6) compared to the below MSD-SET assay (see Table 7 below). For example, the Octet assay measures kinetic on and off rates, while the MSD-SET assay measures binding at equilibrium. In addition, the recombinant antibodies used in the Octet assay were expressed as IgG1 antibodies in yeast, while the antibodies used in the MSD assay were expressed as IgG4 antibodies in mammalian cells.
row,Molecule,Kd
1,B1,2.83 nM
2,B3,0.72 nM
3,B10,0.2 nM

# Test system: Cell-associated proTGFβ1
# Assay: MSD-SET binding, cell average of hGARP and hLRRC33 complexes
# Set-up: species or system human
# Conditions: average KD of (E) and (F), read-out: (G) Cell AVRG
# Excerpt: as §2
row,Molecule,Kd
1,B1,4.75 nM
2,B2,4.65 nM
3,B3,2.45 nM

# Test system: Matrix-associated proTGFβ1 vs Cell-associated proTGFβ1
# Assay: MSD-SET binding, matrix vs cell bias (G/D)
# Set-up: species or system human
# Conditions: ratio of cell average KD to ECM average KD
# Excerpt: as §2
row,Molecule,(H) G/D (fold bias)
1,B1,1.675 fold and 1.68 fold
2,B2,3.87 fold
3,B3,3.40 fold
4,B10,6.75 fold
